This assay addresses T1, MAGE-A2 peptide on HLA-DPA1*01:03 / HLA-DPB1*04:01 (human).
T1 peptide: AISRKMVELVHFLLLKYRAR
Nature of the assay: multimer staining.

B1: 06-MAGE-A2108-127 TCR (TCR, V domains shown)
Valpha: QKVTQAQTEISVVEKEDVTLDCVYETRDTTYYLFWYKQPPSGELVFLIRRNSFDEQNEISGRYSWNFQKSTSSFNFTITASQVVDSAVYFCALSVGTYKYIFGTGTRLKVLA
Vbeta: DTGVSQNPRHKITKRGQNVTFRCDPISEHNRLYWYRQTLGQGPEFLTYFQNEAQLEKSRLLSDRFSAERPKGSFSTLEIQRTEQGDSAMYLCASSPGTGGRETQYFGPGTRLLVL
On to B1, for which the binding result is “recognises”.

The record behind these values is US20220275046A1 (published 2022).
